In patent US20130336885A1 (Genentech, published 2013):

T1: gD epitope-tagged mouse LgR5 expressed on stably transfected 293 cells (mouse, UniProt Q9Z1P4 22-907)
T1 construct: also called gD-tagged mouse LgR5
T1 sequence: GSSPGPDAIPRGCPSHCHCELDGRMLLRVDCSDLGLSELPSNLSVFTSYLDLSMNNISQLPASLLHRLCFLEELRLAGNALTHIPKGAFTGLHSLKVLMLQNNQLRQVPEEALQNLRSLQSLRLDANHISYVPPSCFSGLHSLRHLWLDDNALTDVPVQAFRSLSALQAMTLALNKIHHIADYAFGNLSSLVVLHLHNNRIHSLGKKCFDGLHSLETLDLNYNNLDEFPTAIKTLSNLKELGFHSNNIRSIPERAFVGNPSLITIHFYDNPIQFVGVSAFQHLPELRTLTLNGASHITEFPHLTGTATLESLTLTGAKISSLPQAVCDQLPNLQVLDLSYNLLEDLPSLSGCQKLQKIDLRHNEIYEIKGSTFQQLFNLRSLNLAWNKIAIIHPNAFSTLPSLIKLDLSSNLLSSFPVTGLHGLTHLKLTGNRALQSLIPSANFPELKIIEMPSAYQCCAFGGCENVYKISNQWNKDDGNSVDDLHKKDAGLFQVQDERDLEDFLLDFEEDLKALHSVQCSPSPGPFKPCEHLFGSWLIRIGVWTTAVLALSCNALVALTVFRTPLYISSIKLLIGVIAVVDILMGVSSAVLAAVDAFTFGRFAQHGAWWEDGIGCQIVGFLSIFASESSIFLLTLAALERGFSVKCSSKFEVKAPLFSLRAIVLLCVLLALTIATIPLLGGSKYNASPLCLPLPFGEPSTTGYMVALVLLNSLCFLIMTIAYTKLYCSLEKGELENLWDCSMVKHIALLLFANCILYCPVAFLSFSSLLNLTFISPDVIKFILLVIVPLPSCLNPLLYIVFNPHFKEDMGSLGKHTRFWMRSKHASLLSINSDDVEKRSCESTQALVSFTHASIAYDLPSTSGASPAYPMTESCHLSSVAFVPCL

T2: gD epitope-tagged human LgR5 (full-length) expressed on transfected 293 cells (human, UniProt O75473 22-907)
T2 construct: also called gD-tagged human LgR5
T2 sequence: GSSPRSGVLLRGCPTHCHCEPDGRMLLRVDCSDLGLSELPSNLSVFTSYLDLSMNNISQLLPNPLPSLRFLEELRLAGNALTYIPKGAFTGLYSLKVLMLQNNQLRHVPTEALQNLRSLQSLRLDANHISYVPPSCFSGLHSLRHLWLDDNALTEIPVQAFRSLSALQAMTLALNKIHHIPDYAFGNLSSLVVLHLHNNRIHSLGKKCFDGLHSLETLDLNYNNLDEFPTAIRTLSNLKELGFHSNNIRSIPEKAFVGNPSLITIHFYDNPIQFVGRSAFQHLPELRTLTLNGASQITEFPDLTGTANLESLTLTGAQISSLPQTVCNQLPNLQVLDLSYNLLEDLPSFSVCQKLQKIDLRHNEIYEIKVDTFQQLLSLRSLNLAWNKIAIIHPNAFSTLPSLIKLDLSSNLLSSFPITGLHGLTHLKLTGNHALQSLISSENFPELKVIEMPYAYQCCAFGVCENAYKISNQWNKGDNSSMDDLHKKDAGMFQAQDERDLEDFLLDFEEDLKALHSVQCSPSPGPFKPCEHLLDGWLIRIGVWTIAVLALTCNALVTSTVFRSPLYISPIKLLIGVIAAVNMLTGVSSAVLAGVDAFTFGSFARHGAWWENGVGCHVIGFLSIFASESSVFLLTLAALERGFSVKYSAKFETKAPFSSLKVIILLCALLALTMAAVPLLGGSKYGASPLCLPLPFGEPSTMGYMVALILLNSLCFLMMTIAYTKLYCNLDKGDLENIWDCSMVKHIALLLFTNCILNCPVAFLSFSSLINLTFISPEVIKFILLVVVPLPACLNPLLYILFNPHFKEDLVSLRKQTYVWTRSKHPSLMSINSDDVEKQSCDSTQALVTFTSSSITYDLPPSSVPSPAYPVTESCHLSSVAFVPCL

B1: humanized monoclonal antibody 8E11.v2 (antibody, human IgG1, kappa, V domains shown)
VH: EVQLVQSGAEVKKPGASVKVSCKASGYTFSAYWIEWVRQAPGQGLEWIGEILPGSDSTDYNEKFKVRATFTSDTSTSTVYLELSSLRSEDTAVYYCARGGHYGSLDYWGQGTLVTVSS
VL: DIVMTQSPDSLAVSLGERATINCRASESVDNYGNSFMHWYQQKPGQPPKLLIYLASNLESGVPDRFSGSGSGTDFTLTISSLQAEDVAVYYCQQNYEDPFTFGQGTKVEIKR
notes: It was assessed as an IgG; also called hu8E11.v2; hu8E11v2
B2: human antibody YW353 (antibody, human IgG1, kappa, V domains shown)
VH: EVQLVESGGGLVQPGGSLRLSCAASGFTFTSYSISWVRQAPGKGLEWVAEIYPPGGYTDYADSVKGRFTISADTSKNTAYLQMNSLRAEDTAVYYCAKARLFFDYWGQGTLVTVSS
VL: DIQMTQSPSSLSASVGDRVTITCRASQDVSTAVAWYQQKPGKAPKLLIYSASFLYSGVPSRFSGSGSGTDFTLTISSLQPEDFATYYCQQSYTTPPTFGQGTKVEIKR
notes: also called huYW353
B3: chimeric monoclonal antibody 8E11 (antibody, human IgG1, V domains shown)
VH: QVQLQQSGTELMKPGASVKISCKATGYTFSAYWIEWIKQRPGHGLEWIGEILPGSDSTDYNEKFKVKATFSSDTSSNTVYIQLNSLTYEDSAVYYCARGGHYGSLDYWGQGTTLKVSS
VL: NIVLTQSPASLAVSLGQRATISCRASESVDNYGNSFMHWYQQKPGQPPKLLIYLASNLESGVPARFSGSGSRTDFTLTIDPVEADDAATYYCQQNYEDPFTFGSGTKVEIKR
notes: also called ch8E11; chimeric 8E11

Experiments:
[1] = target: T1, gD epitope-tagged mouse LgR5 expressed …; test: Scatchard analysis, 125I-labelled antibody competed by unlabelled antibody on stably transfected 293 cells
Method: (§1) Scatchard analysis was performed following standard procedures (Holmes et al., Science 256:1205-1210 (1992)) to determine the relative binding affinities of YW353, ch8E11 and hu8E11v2 antibodies.
(§2) Anti-LgrS antibodies were [I¹²⁵] labeled using the indirect Iodogen method. […] Competition assay mixtures of 50 μL volume containing a fixed concentration of [I¹²⁵] labeled antibody and decreasing concentrations of serially diluted, unlabeled antibody were placed into 96-well plates. 293 cells stably expression human, rat, or mouse LgrS were cultured in growth media at 37° C. in 5% CO₂. Cells were detached from the flask using Sigma Cell Dissociation Solution and were washed with binding buffer, which consisted of Dulbecco's Modified Eagle Medium (DMEM) with 2% fetal bovine serum (FBS), 50 mM HEPES (pH 7.2) and 0.1% sodium azide. The washed cells were added to the 96 well plates at a density of 250,000 cells in 0.2 mL of binding buffer. The final concentration of the labeled antibody in each well was […]. The final concentration of the unlabeled antibody in the competition assay ranged from 500 nM through ten 2-fold diluation steps to a 0 nM buffer-only assay. Competition assays were carried out in triplicate. Competition assays were incubated for 2 hours at room temperature. After the 2-hour incubation, the competition assays were transferred to a Millipore Multiscreen filter plate (Billerica, Mass.) and washed 4 times with binding buffer to separate the free from bound [I¹²⁵] labeled antibody. The filters were counted on a Wallac Wizard 1470 gamma counter (PerkinElmer Life and Analytical Sciences Inc.; Wellesley, Mass.). The binding data was evaluated using NewLigand software (Genentech), which uses the fitting algorithm of Munson and Robard to determine the binding affinity of the antibody (Munson and Robard 1980)

[2] = target: T2, gD epitope-tagged human LgR5 …; test: as above
Method: as §1, §2

Binder | Kd [1] | Kd [2]
B1 | 0.5 nM | –
B2 | – | 0.2 nM
B3 | 0.2 nM | 0.4 nM
